The text below walks through data of US20230399394A1 (SUNSHINE GUOJIAN PHARMACEUTICAL SHANGHAI, published 2023).

Experiment [1] has as its target T1, IL-33 mutant protein D65A (human, UniProt O95760 112-270).
T1 construct: Prokaryotic expression
T1 chain: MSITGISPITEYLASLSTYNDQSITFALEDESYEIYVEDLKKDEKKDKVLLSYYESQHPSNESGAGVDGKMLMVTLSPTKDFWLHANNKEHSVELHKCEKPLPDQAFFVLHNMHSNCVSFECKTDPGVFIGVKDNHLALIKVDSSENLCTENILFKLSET
The experiment can be described thus: ELISA as Example 9; row D65A. On the procedure:
(§1) SA protein was diluted to 2 μg/mL to coat ELISA plate at 100 μL/well overnight at 4° C. The plate was washed with PBST (PBS containing 0.05% Tween20) for 3 times, and blocked with 2% BSA prepared in PBS at 200 μL/well, at room temperature for 2 h. After the plate was washed twice with PBST, IL-33-his-biotin protein was diluted to 1 μg/mL with 1% BSA prepared in PBST, and was added to ELISA plate at 100 μL/well. The plate was incubated at room temperature for 1 h, and each monoclonal antibody was diluted with 1% BSA prepared in PBST in a 3-fold gradient. The highest concentration of antibody was 10 μg/mL, and the antibody was diluted for 12 gradients. Each diluted monoclonal antibody was added to ELISA wells with 100 μL/well, and the plate was incubated at room temperature for 1 h. Each sample was added to duplicate wells in parallel. The plate was washed with PBST for 3 times, and HRP-anti human IgG Fc secondary antibody prepared with PBST was diluted at an appropriate ratio, and was added to ELISA wells at 100 μL/well. […] Each reaction solution was shaken uniformly and OD450 nm was read on a microplate reader. The data was analyzed and EC₅₀ was calculated.
(§2) Subsequently, according to the experimental method of Example 9, the affinity of the above mutant proteins to 874F7-Hu1 was determined, and IL-33 proteins (WT-1, WT-2, WT-3, and WT-4) without any mutation were set as controls.
On the technique in general: ELISA stands for enzyme-linked immunosorbent assay.

Experiment [2] addresses T2, IL-33 mutant protein E62A (human, UniProt O95760 112-270).
T2 construct: Prokaryotic expression
T2 chain: T1 chain with E62A, A65D
The experiment can be described thus: ELISA as Example 9; row E62A. The protocol: as §1, §2

Experiment [3] addresses T3, IL-33 mutant protein K48A (human, UniProt O95760 112-270).
T3 construct: Prokaryotic expression
T3 chain: T1 chain with K48A, A65D
The experiment can be described thus: ELISA as Example 9; row K48A. The protocol:
as §1, §2

The target in experiment [4] is T4, IL-33 mutant protein K70A (human, UniProt O95760 112-270).
T4 construct: Prokaryotic expression
T4 chain: T1 chain with A65D, K70A
The experiment is described as follows: ELISA as Example 9; row K70A. The protocol:
as §1, §2

The target of experiment [5] is T5, IL-33 mutant protein L51A (human, UniProt O95760 112-270).
T5 construct: Prokaryotic expression
T5 chain: T1 chain with L51A, A65D
The experiment can be described thus: ELISA as Example 9; row L51A. On the procedure: as §1, §2

Experiment [6] deals with T6, IL-33 mutant protein E55A (human, UniProt O95760 112-270).
T6 construct: Prokaryotic expression
T6 chain: T1 chain with E55A, A65D
The experiment is described as follows: ELISA as Example 9; row E55A against WT-2. On the procedure:
as §1, §2

The target of experiment [7] is T5, IL-33 mutant protein L51A. The experiment is described as follows: ELISA as Example 9; row L51A against WT-2. The protocol:
as §1, §2

The target in experiment [8] is T7, IL-33 mutant protein S52A (human, UniProt O95760 112-270).
T7 construct: Prokaryotic expression
T7 chain: T1 chain with S52A, A65D
The experiment is described as follows: ELISA as Example 9; row S52A against WT-2. On the procedure: as §1, §2

Experiment [9] addresses T8, IL-33 protein without any mutation (WT) (human, UniProt O95760 112-270).
T8 construct: Control of the alanine scan (four runs WT-1 to WT-4); also called WT-1; WT-2
T8 sequence: T1 chain with A65D
The experiment can be described thus: ELISA as Example 9; row WT-3, the reference itself. On the procedure:
as §1, §2

Experiment [10] addresses T9, IL-33 mutant protein V49A (human, UniProt O95760 112-270).
T9 construct: Prokaryotic expression
T9 chain: T1 chain with V49A, A65D
The experiment is described as follows: ELISA by the method of Example 9 with the IL-33 mutant protein on the plate, 874F7-Hu1 in serial dilution, HRP anti-human IgG Fc, absorbance 450 nm.

Changes are numbered by the printed parent chain.

B1: 874F7-Hu1 (antibody, human IgG4 S228P, kappa)
heavy: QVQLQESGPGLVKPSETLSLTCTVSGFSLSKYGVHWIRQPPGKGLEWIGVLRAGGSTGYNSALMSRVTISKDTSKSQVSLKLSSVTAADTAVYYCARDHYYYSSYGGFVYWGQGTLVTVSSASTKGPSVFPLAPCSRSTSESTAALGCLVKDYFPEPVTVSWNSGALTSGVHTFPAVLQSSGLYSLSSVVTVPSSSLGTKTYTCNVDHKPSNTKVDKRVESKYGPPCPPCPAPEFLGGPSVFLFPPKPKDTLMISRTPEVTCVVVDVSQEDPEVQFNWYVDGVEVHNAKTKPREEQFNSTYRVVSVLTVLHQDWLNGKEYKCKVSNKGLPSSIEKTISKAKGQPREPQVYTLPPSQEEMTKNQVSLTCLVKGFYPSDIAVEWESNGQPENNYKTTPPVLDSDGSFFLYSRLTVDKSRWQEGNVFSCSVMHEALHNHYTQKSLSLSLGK
light: DIQMTQSPSSVSASVGDRVTITCLASQTIGAWLAWYQQKPGKSPKLLIYAATRLADGVPSRFSGSGSGTDFTLTISSLQPEDFATYYCQQLDSSPYTFGQGTKVEIKRTVAAPSVFIFPPSDEQLKSGTASVVCLLNNFYPREAKVQWKVDNALQSGNSQESVTEQDSKDSTYSLSSTLTLSKADYEKHKVYACEVTHQGLSSPVTKSFNRGEC
notes: also called 874F7-Hul; humanized antibody 874F7-Hu1
Usually EC50 stands for the concentration needed to bring the measured effect to its halfway point. High values mean lower potency in that assay, low ones higher potency in that assay. One may read the EC50 (read off the curve) as the concentration needed to bring the measured effect to its halfway point. With B1, the EC50 worked out at 35.3 nM in experiment [1]; 0.15 nM in experiment [2]; 0.49 nM in experiment [3]; 0.11 nM in experiment [4]; 0.91 nM in [5]. Moreover, the Affinity decline ratio was found to be 2.5 fold in experiment [6], 6.8 fold in experiment [7], 14.6 fold in experiment [8] and 1 fold in experiment [9]. In experiment [10], the concentration for a half-maximal effect (EC50 (read off the curve)) is approximately 3 nM.
